Laboratory results from US20240343803A1 (SHANDONG SIMCERE BIOPHARMACEUTICAL, published 2024).
Changes are numbered by the printed parent chain. Values belong to the binder of their own block, whether it stands above or below them.

Key:
[1] = target: T1, Fusion protein of extracellular domain of human TIGIT and human IgG1 Fc fragment (human TIGIT ECD-hFc) (human); assay: blocking of TIGIT ECD-hFc binding to CHO-K1 CD155 cells
T1 construct: The entry includes the signal peptide (limits not recoverable) and the human IgG1 Fc
T1 sequence (chain, as listed by the source limits assumed): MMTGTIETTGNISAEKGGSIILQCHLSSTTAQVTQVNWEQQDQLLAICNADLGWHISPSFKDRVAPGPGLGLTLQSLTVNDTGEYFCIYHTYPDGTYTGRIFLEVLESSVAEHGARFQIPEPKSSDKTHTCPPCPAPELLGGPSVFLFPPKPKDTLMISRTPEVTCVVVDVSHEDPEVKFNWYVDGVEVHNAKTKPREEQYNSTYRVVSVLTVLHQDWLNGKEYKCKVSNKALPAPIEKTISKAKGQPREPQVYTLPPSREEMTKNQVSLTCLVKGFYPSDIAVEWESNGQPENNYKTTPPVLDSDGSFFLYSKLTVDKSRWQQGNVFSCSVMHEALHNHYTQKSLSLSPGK
Procedure, shortened: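 The inhibition curves from which IC50 was calculated were generated by cell-based ELISA. Fixed CHO-K1 CD155 cells, blocked with 5% skim milk-PBS, were incubated at 37° C for 1.5-2 h with antibodies that had been premixed for 0.5 h with human TIGIT ECD-hFc at a working concentration of 30 ng/mL. Detection of bound TIGIT used HRP secondary antibody at 1:5000 for 1 h at 37° C, followed by TMB and reading as OD450 nm.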

[2] = target: T2, Fusion protein of extracellular domain of human TIGIT and mouse IgG2a Fc fragment (human TIGIT ECD-mFc) (human); assay: ELISA, human TIGIT ECD-mFc
T2 construct: The entry includes the signal peptide (limits not recoverable) and the mouse IgG2a Fc
T2 chain: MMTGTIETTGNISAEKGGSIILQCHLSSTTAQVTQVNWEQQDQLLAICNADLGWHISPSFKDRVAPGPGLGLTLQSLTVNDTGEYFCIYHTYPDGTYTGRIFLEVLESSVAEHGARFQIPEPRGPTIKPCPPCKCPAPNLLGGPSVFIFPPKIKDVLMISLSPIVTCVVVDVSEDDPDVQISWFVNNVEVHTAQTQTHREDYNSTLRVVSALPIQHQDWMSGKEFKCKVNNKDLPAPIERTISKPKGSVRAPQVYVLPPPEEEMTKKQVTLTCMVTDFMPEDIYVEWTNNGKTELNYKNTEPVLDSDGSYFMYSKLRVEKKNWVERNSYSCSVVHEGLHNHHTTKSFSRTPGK
Experimental: (§1) After discarding the coating solution, the plate was added with 5% skim milk powder (Sangon Biotech, CAT #A600669-0250)-PBS, 250 μL/well, and incubated at 37° C. for 2-4 hours. […] The enzyme-labeled plate was then washed with 0.05% Tween 20-PBS for 3 times on the Microplate Washer, added with tested antibodies diluted to 13 nM with 1% BSA (diluted by 3-fold serial dilution for 12 concentration points), 50 μL/well, and incubated at 37° C. for 1.5-2 hours. The plate was washed with 0.05% Tween 20-PBS for 3 times on the Microplate Washer, then added with HRP enzyme-labeled antibodies (Merck, CAT #AP113P) diluted with 1% BSA (Sangon Biotech, CAT #A500023-0100)-PBS at a dilution ratio of 1:5000, 50 μL/well, and incubated at 37° C. for 1 hour. After washing 3 times with 0.05% Tween 20-PBS on the Microplate Washer, the plate was added with TMB chromogenic solution (KPL, CAT #52-00-03), 50 μL/well, and incubated at room temperature for 7-10 minutes. 1M HCL, 50 μL/well, was then added into the plate to terminate the reaction, and the OD450 nm was read by a microplate reader (Biotek, Powerwave HT). […] (b) The binding activity of anti-TIGIT chimeric antibodies to CHO-K1 human TIGIT (cells with high, medium and low expression levels) and CHO-KI cynomolgus monkey TIGIT detected by FACS.
(§2) The affinity of the above humanized antibodies with human TIGIT ECD-His is detected by BIAcore, and with reference to the methods of Example 4 (a), (b), and (d), the binding activity of the above humanized antibodies to human TIGIT ECD-mFc, CHO-K1 human TIGIT, CHO-K1 cynomolgus monkey TIGIT and cynomolgus monkey TIGIT ECD-mFc, and the effect of the humanized antibodies blocking the binding between human TIGIT ECD-mFc and CHO-K1 CD155 are detected, the results are shown in Table 18.

[3] = target: T3, Full-length cynomolgus monkey TIGIT on CHO-K1 cells (CHO-K1 cynomolgus monkey TIGIT) (cynomolgus monkey); assay: cell binding, CHO-K1 cynomolgus monkey TIGIT
T3 construct: NCBI XP_015300911.1
T3 sequence (chain, as listed by the source limits assumed): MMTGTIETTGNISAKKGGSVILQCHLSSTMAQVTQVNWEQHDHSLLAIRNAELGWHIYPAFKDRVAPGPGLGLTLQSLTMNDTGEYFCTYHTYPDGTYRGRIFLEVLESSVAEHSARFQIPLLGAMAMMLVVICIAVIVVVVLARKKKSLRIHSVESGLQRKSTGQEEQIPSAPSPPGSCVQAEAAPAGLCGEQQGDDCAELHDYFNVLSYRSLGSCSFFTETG
Experimental: (§3) The collected cells were washed once with PBS (Hyclone, CAT #SH30256), resuspended to 2×10⁵/50 μL with 1% BSA-PBS. The antibodies were diluted to 80 nM with 1% BSA-PBS (diluted by 3-fold serial dilution for 12 concentration points). The 50 μL cells were then mixed with 50 μL diluted antibodies, and then incubated at 4° C. for 60 minutes. […] After washing twice with PBS, the cell samples were resuspended with 1% BSA-PBS, 100 μL/well and then analyzed by flow cytometry (BD, Canto II). […] [0298] (c) The effect of anti-TIGIT chimeric antibodies blocking the interaction between Bio-CD155-His and CHO-K1 human TIGIT high expression cell strains detected by FACS
as §2

[4] = target: T4, Fusion protein of extracellular domain of cynomolgus monkey TIGIT and mouse IgG2a Fc fragment (cynomolgus … (cynomolgus monkey)); assay: ELISA, cynomolgus monkey TIGIT ECD-mFc
T4 construct: The entry includes the signal peptide (limits not recoverable) and the mouse IgG2a Fc
T4 sequence (chain, as listed by the source limits assumed): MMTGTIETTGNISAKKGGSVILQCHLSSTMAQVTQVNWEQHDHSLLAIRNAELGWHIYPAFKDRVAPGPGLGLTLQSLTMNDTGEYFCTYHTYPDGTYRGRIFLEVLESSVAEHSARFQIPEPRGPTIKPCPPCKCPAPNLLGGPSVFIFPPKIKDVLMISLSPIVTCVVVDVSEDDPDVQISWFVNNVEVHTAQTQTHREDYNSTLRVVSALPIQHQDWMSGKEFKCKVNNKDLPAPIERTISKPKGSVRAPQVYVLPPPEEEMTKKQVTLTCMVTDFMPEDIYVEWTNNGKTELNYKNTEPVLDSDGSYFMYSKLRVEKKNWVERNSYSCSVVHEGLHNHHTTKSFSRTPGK
Experimental: as §1, §2

[5] = target: T5, Full-length human TIGIT on CHO-K1 cells (CHO-K1 human TIGIT) (human, UniProt Q495A1 22-244); assay: cell binding, CHO-K1 human TIGIT high expression strain
T5 construct: NCBI XP_024309156.1; the entry includes the signal peptide (limits not recoverable); The strain (high, medium, low) is named under assay; also called high expression strain 1D2; medium expression strain 2D10
T5 sequence: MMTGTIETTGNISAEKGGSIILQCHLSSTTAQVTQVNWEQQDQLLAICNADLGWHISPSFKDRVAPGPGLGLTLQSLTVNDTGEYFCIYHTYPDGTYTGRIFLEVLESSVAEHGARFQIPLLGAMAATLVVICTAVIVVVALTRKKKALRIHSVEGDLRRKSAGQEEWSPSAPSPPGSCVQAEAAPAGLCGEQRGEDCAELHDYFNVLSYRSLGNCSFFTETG
Experimental: as §3, §2

B1: TIGIT-002-H2L1 (antibody, V domains shown)
VH: EVQLQESGPGLVKPSETLSLTCAVSGYSITSDSWNWIRQPPGKKLEWIGYISYSGNTYYNPSLKSRVTISRDTSKNQFSLKLSSVTAADTAVYYCARLDFSNYGGAVDYWGQGTTVTVSS
VL: DIVMTQTPLSLSVTPGQPASISCKASQNVRTAVAWYLQKPGQSPQLMIYSASYRYTGVPDRFSGSGSGTDFTLKISRVEAEDVGVYYCQQYYTTPWTFGGGTKVEIK
notes: Humanized anti-TIGIT antibody
IC50 [1]: 0.646 nM
EC50 [2]: 0.0188 nM
EC50 [3]: 0.181 nM
EC50 [4]: 0.0877 nM
EC50 [5]: 0.0468 nM

B2: TIGIT-002-H2L2 (antibody, V domains shown)
VH: B1 VH
VL: B1 VL with L37Q
notes: Humanized anti-TIGIT antibody
IC50 [1]: 0.56 nM
EC50 [2]: 0.0222 nM
EC50 [3]: 0.12 nM
EC50 [4]: 0.0554 nM
EC50 [5]: 0.0215 nM

B4: TIGIT-002-H1L1 (antibody, V domains shown)
VH: B1 VH with K44G
VL: B1 VL
notes: Humanized anti-TIGIT antibody
IC50 [1]: 0.526 nM
EC50 [2]: 0.0155 nM
EC50 [3]: 0.187 nM
EC50 [4]: 0.209 nM
EC50 [5]: 0.0201 nM

B8: TIGIT-002-H1L2 (antibody, V domains shown)
VH: B1 VH with K44G
VL: B1 VL with L37Q
notes: Humanized anti-TIGIT antibody
IC50 [1]: 0.421 nM
EC50 [2]: 0.0158 nM
EC50 [3]: 0.221 nM
EC50 [4]: 0.0811 nM
EC50 [5]: 0.0167 nM

More lines, now with the values ahead:

IC50 [1]: 0.445 nM
EC50 [2]: 0.0164 nM
EC50 [3]: 0.0543 nM
EC50 [4]: 0.0206 nM
EC50 [5]: 0.0253 nM
B3: TIGIT-002-H4L1 (antibody, V domains shown)
VH: B1 VH with W47Y
VL: B1 VL
notes: Humanized anti-TIGIT antibody

IC50 [1]: 0.394 nM
EC50 [2]: 0.017 nM
EC50 [3]: 0.113 nM
EC50 [4]: 0.0218 nM
EC50 [5]: 0.0329 nM
B5: TIGIT-002-H3L2 (antibody, V domains shown)
VH: B1 VH with I48M, V67I
VL: B1 VL with L37Q
notes: Humanized anti-TIGIT antibody

IC50 [1]: 0.44 nM
EC50 [2]: 0.0179 nM
EC50 [3]: 0.0474 nM
EC50 [4]: 0.0254 nM
EC50 [5]: 0.0294 nM
B6: TIGIT-002-H4L2 (antibody, V domains shown)
VH: B1 VH with W47Y
VL: B1 VL with L37Q
notes: Humanized anti-TIGIT antibody

IC50 [1]: 0.459 nM
EC50 [2]: 0.012 nM
EC50 [3]: 0.232 nM
EC50 [4]: 0.0253 nM
EC50 [5]: 0.0204 nM
B7: TIGIT-002-H3L1 (antibody, V domains shown)
VH: B1 VH with I48M, V67I
VL: B1 VL
notes: Humanized anti-TIGIT antibody
